# Measurements: patent publication US20170224620A1 (Pfizer, published 2017)
# Bridges are numbered along the chain shown (N, C = ends). [ ]: non-standard residue; d: D form. hCys = N[C@@H](CCS)C(=O)O; Pra = C#CC[C@H](N)C(=O)O
# B1: P2-50 (peptide)
# peptide: H-DPCTWEVWGRE[hCys]LQGG[Pra]G-NH2
# modifications: disulfide 3-12
# SMILES: C#CC[C@H](NC(=O)CNC(=O)CNC(=O)[C@H](CCC(N)=O)NC(=O)[C@H](CC(C)C)NC(=O)[C@@H]1CCSSC[C@H](NC(=O)[C@@H]2CCCN2C(=O)[C@@H](N)CC(=O)O)C(=O)N[C@@H]([C@@H](C)O)C(=O)N[C@@H](Cc2c[nH]c3ccccc23)C(=O)N[C@@H](CCC(=O)O)C(=O)N[C@@H](C(C)C)C(=O)N[C@@H](Cc2c[nH]c3ccccc23)C(=O)NCC(=O)N[C@@H](CCCNC(=N)N)C(=O)N[C@@H](CCC(=O)O)C(=O)N1)C(=O)NCC(N)=O
# B2: P2-37 (peptide)
# peptide: H-DPCTWELWGRECLQGG[Pra]G-NH2
# modifications: disulfide 3-12
# SMILES: C#CC[C@H](NC(=O)CNC(=O)CNC(=O)[C@H](CCC(N)=O)NC(=O)[C@H](CC(C)C)NC(=O)[C@@H]1CSSC[C@H](NC(=O)[C@@H]2CCCN2C(=O)[C@@H](N)CC(=O)O)C(=O)N[C@@H]([C@@H](C)O)C(=O)N[C@@H](Cc2c[nH]c3ccccc23)C(=O)N[C@@H](CCC(=O)O)C(=O)N[C@@H](CC(C)C)C(=O)N[C@@H](Cc2c[nH]c3ccccc23)C(=O)NCC(=O)N[C@@H](CCCNC(=N)N)C(=O)N[C@@H](CCC(=O)O)C(=O)N1)C(=O)NCC(N)=O
# B3: P2-32 (peptide)
# peptide: H-DPCTWRVWGRECLQGG[Pra]G-NH2
# modifications: disulfide 3-12
# SMILES: C#CC[C@H](NC(=O)CNC(=O)CNC(=O)[C@H](CCC(N)=O)NC(=O)[C@H](CC(C)C)NC(=O)[C@@H]1CSSC[C@H](NC(=O)[C@@H]2CCCN2C(=O)[C@@H](N)CC(=O)O)C(=O)N[C@@H]([C@@H](C)O)C(=O)N[C@@H](Cc2c[nH]c3ccccc23)C(=O)N[C@@H](CCCNC(=N)N)C(=O)N[C@@H](C(C)C)C(=O)N[C@@H](Cc2c[nH]c3ccccc23)C(=O)NCC(=O)N[C@@H](CCCNC(=N)N)C(=O)N[C@@H](CCC(=O)O)C(=O)N1)C(=O)NCC(N)=O
# B4: P2-25 (peptide)
# peptide: H-DPCVWEVWGRECLQGG[Pra]G-NH2
# modifications: disulfide 3-12
# SMILES: C#CC[C@H](NC(=O)CNC(=O)CNC(=O)[C@H](CCC(N)=O)NC(=O)[C@H](CC(C)C)NC(=O)[C@@H]1CSSC[C@H](NC(=O)[C@@H]2CCCN2C(=O)[C@@H](N)CC(=O)O)C(=O)N[C@@H](C(C)C)C(=O)N[C@@H](Cc2c[nH]c3ccccc23)C(=O)N[C@@H](CCC(=O)O)C(=O)N[C@@H](C(C)C)C(=O)N[C@@H](Cc2c[nH]c3ccccc23)C(=O)NCC(=O)N[C@@H](CCCNC(=N)N)C(=O)N[C@@H](CCC(=O)O)C(=O)N1)C(=O)NCC(N)=O
# B5: P2-26 (peptide)
# peptide: H-DPCSWEVWGRECLQGG[Pra]G-NH2
# modifications: disulfide 3-12
# SMILES: C#CC[C@H](NC(=O)CNC(=O)CNC(=O)[C@H](CCC(N)=O)NC(=O)[C@H](CC(C)C)NC(=O)[C@@H]1CSSC[C@H](NC(=O)[C@@H]2CCCN2C(=O)[C@@H](N)CC(=O)O)C(=O)N[C@@H](CO)C(=O)N[C@@H](Cc2c[nH]c3ccccc23)C(=O)N[C@@H](CCC(=O)O)C(=O)N[C@@H](C(C)C)C(=O)N[C@@H](Cc2c[nH]c3ccccc23)C(=O)NCC(=O)N[C@@H](CCCNC(=N)N)C(=O)N[C@@H](CCC(=O)O)C(=O)N1)C(=O)NCC(N)=O
# B6: P2-33 (peptide)
# peptide: H-DPCTWGVWGRECLQGG[Pra]G-NH2
# modifications: disulfide 3-12
# SMILES: C#CC[C@H](NC(=O)CNC(=O)CNC(=O)[C@H](CCC(N)=O)NC(=O)[C@H](CC(C)C)NC(=O)[C@@H]1CSSC[C@H](NC(=O)[C@@H]2CCCN2C(=O)[C@@H](N)CC(=O)O)C(=O)N[C@@H]([C@@H](C)O)C(=O)N[C@@H](Cc2c[nH]c3ccccc23)C(=O)NCC(=O)N[C@@H](C(C)C)C(=O)N[C@@H](Cc2c[nH]c3ccccc23)C(=O)NCC(=O)N[C@@H](CCCNC(=N)N)C(=O)N[C@@H](CCC(=O)O)C(=O)N1)C(=O)NCC(N)=O
# B7: P2-36 (peptide)
# peptide: H-DPCTWEIWGRECLQGG[Pra]G-NH2
# modifications: disulfide 3-12
# SMILES: C#CC[C@H](NC(=O)CNC(=O)CNC(=O)[C@H](CCC(N)=O)NC(=O)[C@H](CC(C)C)NC(=O)[C@@H]1CSSC[C@H](NC(=O)[C@@H]2CCCN2C(=O)[C@@H](N)CC(=O)O)C(=O)N[C@@H]([C@@H](C)O)C(=O)N[C@@H](Cc2c[nH]c3ccccc23)C(=O)N[C@@H](CCC(=O)O)C(=O)N[C@@H]([C@@H](C)CC)C(=O)N[C@@H](Cc2c[nH]c3ccccc23)C(=O)NCC(=O)N[C@@H](CCCNC(=N)N)C(=O)N[C@@H](CCC(=O)O)C(=O)N1)C(=O)NCC(N)=O
# B8: P2-15 (peptide)
# peptide: H-DPCTWEVWGRECGG[Pra]G-NH2
# modifications: disulfide 3-12
# SMILES: C#CC[C@H](NC(=O)CNC(=O)CNC(=O)[C@@H]1CSSC[C@H](NC(=O)[C@@H]2CCCN2C(=O)[C@@H](N)CC(=O)O)C(=O)N[C@@H]([C@@H](C)O)C(=O)N[C@@H](Cc2c[nH]c3ccccc23)C(=O)N[C@@H](CCC(=O)O)C(=O)N[C@@H](C(C)C)C(=O)N[C@@H](Cc2c[nH]c3ccccc23)C(=O)NCC(=O)N[C@@H](CCCNC(=N)N)C(=O)N[C@@H](CCC(=O)O)C(=O)N1)C(=O)NCC(N)=O
# B9: P2-18 (peptide)
# peptide: H-DACTWEVWGRECGG[Pra]G-NH2
# modifications: disulfide 3-12
# SMILES: C#CC[C@H](NC(=O)CNC(=O)CNC(=O)[C@@H]1CSSC[C@H](NC(=O)[C@H](C)NC(=O)[C@@H](N)CC(=O)O)C(=O)N[C@@H]([C@@H](C)O)C(=O)N[C@@H](Cc2c[nH]c3ccccc23)C(=O)N[C@@H](CCC(=O)O)C(=O)N[C@@H](C(C)C)C(=O)N[C@@H](Cc2c[nH]c3ccccc23)C(=O)NCC(=O)N[C@@H](CCCNC(=N)N)C(=O)N[C@@H](CCC(=O)O)C(=O)N1)C(=O)NCC(N)=O
# B10: P2-23 (peptide)
# peptide: H-[Pra]CTWEVWGREC-NH2
# modifications: disulfide 2-11
# SMILES: C#CC[C@H](N)C(=O)N[C@H]1CSSC[C@@H](C(N)=O)NC(=O)[C@H](CCC(=O)O)NC(=O)[C@H](CCCNC(=N)N)NC(=O)CNC(=O)[C@H](Cc2c[nH]c3ccccc23)NC(=O)[C@H](C(C)C)NC(=O)[C@H](CCC(=O)O)NC(=O)[C@H](Cc2c[nH]c3ccccc23)NC(=O)[C@H]([C@@H](C)O)NC1=O
# B11: P2-20 (truncation, Table 12) (peptide)
# peptide: Ac-ACTWEVWGRECGG[Pra]G-NH2
# modifications: disulfide 2-11
# SMILES: C#CC[C@H](NC(=O)CNC(=O)CNC(=O)[C@@H]1CSSC[C@H](NC(=O)[C@H](C)NC(C)=O)C(=O)N[C@@H]([C@@H](C)O)C(=O)N[C@@H](Cc2c[nH]c3ccccc23)C(=O)N[C@@H](CCC(=O)O)C(=O)N[C@@H](C(C)C)C(=O)N[C@@H](Cc2c[nH]c3ccccc23)C(=O)NCC(=O)N[C@@H](CCCNC(=N)N)C(=O)N[C@@H](CCC(=O)O)C(=O)N1)C(=O)NCC(N)=O
# B12: P2-17 (peptide)
# peptide: H-CTWEVWGRECGG[Pra]G-NH2
# modifications: disulfide 1-10
# SMILES: C#CC[C@H](NC(=O)CNC(=O)CNC(=O)[C@@H]1CSSC[C@H](N)C(=O)N[C@@H]([C@@H](C)O)C(=O)N[C@@H](Cc2c[nH]c3ccccc23)C(=O)N[C@@H](CCC(=O)O)C(=O)N[C@@H](C(C)C)C(=O)N[C@@H](Cc2c[nH]c3ccccc23)C(=O)NCC(=O)N[C@@H](CCCNC(=N)N)C(=O)N[C@@H](CCC(=O)O)C(=O)N1)C(=O)NCC(N)=O
# B13: P2-19 (peptide)
# peptide: H-ACTWEVWGRECGG[Pra]G-NH2
# modifications: disulfide 2-11
# SMILES: C#CC[C@H](NC(=O)CNC(=O)CNC(=O)[C@@H]1CSSC[C@H](NC(=O)[C@H](C)N)C(=O)N[C@@H]([C@@H](C)O)C(=O)N[C@@H](Cc2c[nH]c3ccccc23)C(=O)N[C@@H](CCC(=O)O)C(=O)N[C@@H](C(C)C)C(=O)N[C@@H](Cc2c[nH]c3ccccc23)C(=O)NCC(=O)N[C@@H](CCCNC(=N)N)C(=O)N[C@@H](CCC(=O)O)C(=O)N1)C(=O)NCC(N)=O
# B14: P2-21 (peptide)
# peptide: H-[Pra]ACTWEVWGREC-NH2
# modifications: disulfide 3-12
# SMILES: C#CC[C@H](N)C(=O)N[C@@H](C)C(=O)N[C@H]1CSSC[C@@H](C(N)=O)NC(=O)[C@H](CCC(=O)O)NC(=O)[C@H](CCCNC(=N)N)NC(=O)CNC(=O)[C@H](Cc2c[nH]c3ccccc23)NC(=O)[C@H](C(C)C)NC(=O)[C@H](CCC(=O)O)NC(=O)[C@H](Cc2c[nH]c3ccccc23)NC(=O)[C@H]([C@@H](C)O)NC1=O
# B15: P2-16 (peptide)
# peptide: H-CTWEVWGRECLQGG[Pra]G-NH2
# modifications: disulfide 1-10
# SMILES: C#CC[C@H](NC(=O)CNC(=O)CNC(=O)[C@H](CCC(N)=O)NC(=O)[C@H](CC(C)C)NC(=O)[C@@H]1CSSC[C@H](N)C(=O)N[C@@H]([C@@H](C)O)C(=O)N[C@@H](Cc2c[nH]c3ccccc23)C(=O)N[C@@H](CCC(=O)O)C(=O)N[C@@H](C(C)C)C(=O)N[C@@H](Cc2c[nH]c3ccccc23)C(=O)NCC(=O)N[C@@H](CCCNC(=N)N)C(=O)N[C@@H](CCC(=O)O)C(=O)N1)C(=O)NCC(N)=O
# Molecular target: T1, Fc tagged recombinant human EGFR (rhEGFR-Fc, R&D systems, Cat#344-ER-050) (human, UniProt P00533 25-645)
# T1 construct: Bought protein; also called apo-EGFR; not shown: Fc tag
# Experiment: SPR
# Method: Surface plasmon resonance (SPR) binding studies were carried out on a Biacore T200 instrument (GE Healthcare). […] The contact time and resulting amount of rhEGFR-Fc capture was varied based on the nature of the analyte, namely whether it was a peptide or nanoparticle.
# Peptide binding assays were carried out in 10 mM PBS buffer supplemented with 0.05% surfactant P20 and 5% DMSO by volume, at 25° C. Peptides were injected over the rhEGFR-Fc surface for 60 s, followed by dissociation (buffer injection) for 60 s and regeneration with a 10 s pulse of 3M MgCl₂. A fresh rhEGFR-Fc surface was generated for each concentration of each peptide tested. Peptide binding data was analyzed by fitting to a 1:1 Langmuir kinetic model to obtain the on-rate (kₐ), off-rate (kd) and/or equilibrium binding constant (KD) of the interaction.
Binder,Result (affinity relative to KD of P2) [ratio],KD/P2 KD [ratio]
B1,4.56,–
H-DPCTFEVWGRECLQGG[Pra]G-NH2 (disulfide 3-12) [P2-29],–,9.24
B2,–,10.1
B3,–,1.21
B4,–,1.1
B5,–,1.68
B6,–,42.7
B7,–,3.48
B8,–,0.9
B9,–,1.6
B10,–,4.5
B11,–,3
B12,–,0.4
B13,–,2.4
B14,–,6.7
B15,–,2
